The results in this text go back to the RNAGym collection of RNA variant scans (doi:10.1093/molbev/msab373).

The chains are these.
B1: Azoarcus group I ribozyme (parent)
chain: GUGCCUUGCGCCGGGAAACCACGCAAGGGAUGGUGUCAAAUUCGGCGAAACCUAAGCGCCCGCCCGGGCGUAUGGCAACGCCGAGCCAAGCUUCGGCGCCUGCGCCGAUGAAGGUGUAGAGACUAGACGGCACCCACCUAAGGCAAACGCUAUGGUGAAGGCAUAGUCCAGGGAGUGGCGAAAGUCACACAAACCGG

Variants of B1 are the subject of this data set. Description: reverse-splicing fitness (ratio to wild type); higher = more active; in vitro selection; Mg2+ level not given. The method in brief:
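An in vitro group I ribozyme library with randomized positions was T7-transcribed and gel-purified. In triplicate, 10 pmol RNA in EPPS pH 7.5 was reacted with 50 pmoles of a 30-nt RNA substrate for 1 h at 37 °C across several added MgCl2 levels (1–48 mM), then stopped with EDTA. Products were reverse transcribed from a substrate-complementary primer, PCR-amplified and sequenced (HiSeq 4000). Fitness is a variant's read proportion after selection over that before, normalised to wild type.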
With GUGCCUUGCGCCGGGAAACCACGCAAGGGAUGGUGUCAAAUUCGGCGAAACCUAAGCGCCCGCCCGGGCGUAUGGCAACGCCGAGCCAAGCUUCGGCGCCUGCGCCGAUGAAGGUGUAGAGACUAGACGGCACCCACCUAAGGCUAACGCUAUGGUGAAGGCAUAGUCCAGGGAGGGGCGAAAGUCACACAAACCGG, the reverse-splicing fitness was found to be 0.462. Turning to GUGCCUUGCGCCGGGAAACCACGCAAGGGAUGGUGUCAAAUUCGGCGAAACCUAAGCGCCCGCCCGGGCGUAUGGCAACGCCGAGCCAAGCUUCGGCGCCUGCGCCGAUGAAGGUGUAGAGACUAGACGGCACCCACCUAAGGCUAACGCUAUGGUGAAGGCAUAGUCCAGGGAGAGGCGAAAGUCACACAAACCGG, the reverse-splicing fitness turned out to be 0.937.

Turning to GUGCCUUGCGCCGGGAAACCACGCAAGGGAUGGUGUCAAAUUCGGCGAAACCUAAGCGCCCGCCCGGGCGUAUGGCAACGCCGAGCCAAGCUUCGGCGCCUGCGCCGAUGAAGGUGUAGAGACUAGACGGCACCCACCUAAGGCUAACGCUAUGGUGAAGGCAUAGUCCAGGGAGCGGCGAAAGUCACACAAACCGG, the reverse-splicing fitness was determined as 0.911. For GUGCCUUGCGCCGGGAAACCACGCAAGGGAUGGUGUCAAAUUCGGCGAAACCUAAGCGCCCGCCCGGGCGUAUGGCAACGCCGAGCCAAGCUUCGGCGCCUGCGCCGAUGAAGGUGUAGAGACUAGACGGCACCCACCUAAGGCAAACGGUAUGGUGAAGGCAUAGUCAAGGGAGAGGCGAAAGUCACACAAACCGG the value was 0.0121; for GUGCCUUGCGCCGGGAAACCACGCAAGGGAUGGUGUCAAAUUCGGCGAAACCUAAGCGCCCGCCCGGGCGUAUGGCAACGCCGAGCCAAGCUUCGGCGCCUGCGCCGAUGAAGGUGUAGAGACUAGACGGCACCCACCUAAGGCAAACGGUAUGGUGAAGGCAUAGUCAAGGGAGGGGCGAAAGUCACACAAACCGG, 0.00618. The value for GUGCCUUGCGCCGGGAAACCACGCAAGGGAUGGUGUCAAAUUCGGCGAAACCUAAGCGCCCGCCCGGGCGUAUGGCAACGCCGAGCCAAGCUUCGGCGCCUGCGCCGAUGAAGGUGUAGAGACUAGACGGCACCCACCUAAGGCAAACGGUAUGGUGAAGGCAUAGUCAAGGGAGCGGCGAAAGUCACACAAACCGG was 0.0144.

Regarding GUGCCUUGCGCCGGGAAACCACGCAAGGGAUGGUGUCAAAUUCGGCGAAACCUAAGCGCCCGCCCGGGCGUAUGGCAACGCCGAGCCAAGCUUCGGCGCCUGCGCCGAUGAAGGUGUAGAGACUAGACGGCACCCACCUAAGGCAAACGAUAUGGUGAAGGCAUAGUCUAGGGAGGGGCGAAAGUCACACAAACCGG, the reverse-splicing fitness was found to be 0.00737. The value for GUGCCUUGCGCCGGGAAACCACGCAAGGGAUGGUGUCAAAUUCGGCGAAACCUAAGCGCCCGCCCGGGCGUAUGGCAACGCCGAGCCAAGCUUCGGCGCCUGCGCCGAUGAAGGUGUAGAGACUAGACGGCACCCACCUAAGGCAAACGAUAUGGUGAAGGCAUAGUCUAGGGAGAGGCGAAAGUCACACAAACCGG was 0.0369. For GUGCCUUGCGCCGGGAAACCACGCAAGGGAUGGUGUCAAAUUCGGCGAAACCUAAGCGCCCGCCCGGGCGUAUGGCAACGCCGAGCCAAGCUUCGGCGCCUGCGCCGAUGAAGGUGUAGAGACUAGACGGCACCCACCUAAGGCAAACGAUAUGGUGAAGGCAUAGUCUAGGGAGCGGCGAAAGUCACACAAACCGG the value was 0.0421. For GUGCCUUGCGCCGGGAAACCACGCAAGGGAUGGUGUCAAAUUCGGCGAAACCUAAGCGCCCGCCCGGGCGUAUGGCAACGCCGAGCCAAGCUUCGGCGCCUGCGCCGAUGAAGGUGUAGAGACUAGACGGCACCCACCUAAGGCAAACGAUAUGGUGAAGGCAUAGUCCAGGGAGUGGCGAAAGUCACACAAACCGG, the reverse-splicing fitness worked out at 0.484.

Turning to GUGCCUUGCGCCGGGAAACCACGCAAGGGAUGGUGUCAAAUUCGGCGAAACCUAAGCGCCCGCCCGGGCGUAUGGCAACGCCGAGCCAAGCUUCGGCGCCUGCGCCGAUGAAGGUGUAGAGACUAGACGGCACCCACCUAAGGCAAACGGUAUGGUGAAGGCAUAGUCCAGGGAGUGGCGAAAGUCACACAAACCGG, the reverse-splicing fitness turned out to be 0.42. In the case of GUGCCUUGCGCCGGGAAACCACGCAAGGGAUGGUGUCAAAUUCGGCGAAACCUAAGCGCCCGCCCGGGCGUAUGGCAACGCCGAGCCAAGCUUCGGCGCCUGCGCCGAUGAAGGUGUAGAGACUAGACGGCACCCACCUAAGGCAAACGAUAUGGUGAAGGCAUAGUCAAGGGAGUGGCGAAAGUCACACAAACCGG, the reverse-splicing fitness is 0.0251. On to GUGCCUUGCGCCGGGAAACCACGCAAGGGAUGGUGUCAAAUUCGGCGAAACCUAAGCGCCCGCCCGGGCGUAUGGCAACGCCGAGCCAAGCUUCGGCGCCUGCGCCGAUGAAGGUGUAGAGACUAGACGGCACCCACCUAAGGCAAACGAUAUGGUGAAGGCAUAGUCUAGGGAGUGGCGAAAGUCACACAAACCGG, for which the reverse-splicing fitness was 0.061. Take GUGCCUUGCGCCGGGAAACCACGCAAGGGAUGGUGUCAAAUUCGGCGAAACCUAAGCGCCCGCCCGGGCGUAUGGCAACGCCGAGCCAAGCUUCGGCGCCUGCGCCGAUGAAGGUGUAGAGACUAGACGGCACCCACCUAAGGCAAACGAUAUGGUGAAGGCAUAGUCGAGGGAGUGGCGAAAGUCACACAAACCGG: the reverse-splicing fitness is 0.0379. For GUGCCUUGCGCCGGGAAACCACGCAAGGGAUGGUGUCAAAUUCGGCGAAACCUAAGCGCCCGCCCGGGCGUAUGGCAACGCCGAGCCAAGCUUCGGCGCCUGCGCCGAUGAAGGUGUAGAGACUAGACGGCACCCACCUAAGGCAAACGGUAUGGUGAAGGCAUAGUCAAGGGAGUGGCGAAAGUCACACAAACCGG, the reverse-splicing fitness worked out at 0.02.
